We go through 167 variants from the RNAGym collection of RNA variant scans (doi:10.7554/elife.90254).

B1: LINE1-mini (parent)
chain: GGCAGAGCUCAACACAGCGUGGCAAAGUGGCUGUGGCUAGACUGCC

Variants of B1 are the subject of the data set. Briefly: self-cleavage, relative activity (ratio to wild type); higher = more cleavage; in vitro, sequencing; the parent is a self-cleaving ribozyme.
For G29C C42G, the self-cleavage was determined as 0.02. As to G29C C42A, the self-cleavage stood at 0.1. In the case of G29A G30C it was 1.52. Under G29A G30A stands 2.29; under G29A G30U, 1.41.

For the variant G29A U43A, the self-cleavage turned out to be 0.16.

For the variant G29A U43G, the self-cleavage came out at 0.04. Take G29A U43C: the self-cleavage worked out at 0.08. Under U28C U34A stands 0.22; under U28C U34G, 0.21. As for G29C U38A, the self-cleavage turned out to be 0.08. As to G29C U38C, the self-cleavage came out at 0.11. With G29C U38G, the self-cleavage stood at 0.02.

In the case of G29U G40U, the self-cleavage was 0.18. Under G29U G40C stands 0.14. As for G29U G40A, the self-cleavage came out at 0.15. Turning to U28G U34C, the self-cleavage came out at 0.11.

In the case of U28G U34G, the self-cleavage is 0.23.

For the variant U28G U34A, the self-cleavage was determined as 0.26. Under G29A C45A stands 1.03; under G29A C45U, 1.67; under G29A C45G, 0.2. Under U28A U38C stands 0.38; under U28A U38A, 0.38. Under U28A U38G stands 0.01. As to U28A C37G, the self-cleavage worked out at 0.04. U28A C37A: the self-cleavage stood at 0.04. Take U28A C37U: the self-cleavage stood at 0.04. Consider U28C U43A, for which the self-cleavage was 0.08. In the case of U28C U43C it was 0.12.

On to U28C U38G, for which the self-cleavage was found to be 0.01. In the case of U28C U38A it was 0.1. In the case of G29U C46U it was 1.51; in that of G29U C46G, 0.93; in that of G29U C46A, 0.82.

On to G29C G44U, for which the self-cleavage stood at 0.37. Turning to G29C G44A, the self-cleavage came out at 0.15. Regarding G29C G44C, the self-cleavage was determined as 0.29. Regarding U28G A39C, the self-cleavage was found to be 0.05.

For the variant U28G A39U, the self-cleavage is 0.56.

With U28G A39G, the self-cleavage came out at 0.07. In the case of U28A G40A it was 0.1; in that of U28A G40U, 0.12. U28A G40C: the self-cleavage was 0.09. Turning to G27U U43C, the self-cleavage stood at 0.1. In the case of G27U U43A, the self-cleavage was determined as 0.17. Under G27U U43G stands 0.11; under U28G G29A, 0.34; under U28G G29C, 0.53.

On to U28G G29U, for which the self-cleavage is 0.61. As to U28G C46A, the self-cleavage turned out to be 1.1. Consider U28G C46G, for which the self-cleavage amounted to 0.99. In the case of U28G C46U it was 0.36; in that of G29C G33U, 0.36; in that of G29C G33C, 0.1. In the case of G29C G33A, the self-cleavage came out at 0.12. Under G29A U32A stands 0.4; under G29A U32C, 0.18. Take G29A U32G: the self-cleavage is 0.46. Take U28G C42A: the self-cleavage was 0.18. As for U28G C42G, the self-cleavage was 0.03. In the case of U28G C42U it was 0.31. Under U28C G40A stands 0.09; under U28C G40C, 0.2. In the case of U28C G40U it was 0.17.

As for U28G G40U, the self-cleavage was found to be 0.09.

With U28G G40A, the self-cleavage was 0.12. Take U28G G40C: the self-cleavage came to 0.07.

For the variant G29A C37U, the self-cleavage was 0.05. In the case of G29A C37A, the self-cleavage stood at 0.1. In the case of G29A C37G it was 0.02. Under G29A C46U stands 0.82; under G29A C46G, 0.74; under G29A C46A, 0.89. For the variant U28A G30A, the self-cleavage turned out to be 1.65. Under U28A G30C stands 0.62; under U28A G30U, 0.77.

For the variant U28A A41C, the self-cleavage worked out at 0.03. Regarding U28A A41U, the self-cleavage turned out to be 0.42. Under U28A A41G stands 0.3; under U28C G33A, 0.14; under U28C G33U, 0.08. As for U28C G33C, the self-cleavage was found to be 0.06. Consider U28C G36C, for which the self-cleavage is 0.28. Under U28C G36A stands 0.1; under U28C G36U, 0.11; under U28C, 0.73. Under U28G stands 0.64. As to U28A, the self-cleavage turned out to be 0.71. Under G29U C45G stands 0.78; under G29U C45U, 1.99; under G29U C45A, 0.63. Under G27U G35A stands 0.18. Take G27U G35C: the self-cleavage was determined as 0.09. Take G27U G35U: the self-cleavage was 0.24.

For G29U G36C, the self-cleavage came to 0.1.

As for G29U G36A, the self-cleavage was 0.17. For G29U G36U, the self-cleavage was 0.05. In the case of G29A U38A it was 0.28; in that of G29A U38G, 0.01; in that of G29A U38C, 0.44. In the case of U28G U38A it was 0.19. Under U28G U38C stands 1.1. On to U28G U38G, for which the self-cleavage is 0.02. Turning to G29C C46U, the self-cleavage came to 0.6. Turning to G29C C46G, the self-cleavage worked out at 0.52. Under G29C C46A stands 0.68; under G29A G36C, 0.09; under G29A G36A, 0.11. As for G29A G36U, the self-cleavage is 0.09.

In the case of G29U G33U, the self-cleavage is 0.12. In the case of G29U G33A it was 0.1; in that of G29U G33C, 0.06.

On to G29A G33U, for which the self-cleavage was determined as 0.12. In the case of G29A G33A, the self-cleavage turned out to be 0.12. In the case of G29A G33C it was 0.06; in that of G29C C31A, 1.34. With G29C C31U, the self-cleavage was found to be 0.93. As for G29C C31G, the self-cleavage is 0.34.

On to G27U U32G, for which the self-cleavage was 0.16. With G27U U32C, the self-cleavage was determined as 0.19.

On to G27U U32A, for which the self-cleavage was determined as 0.07. In the case of G29C U32C it was 0.7; in that of G29C U32A, 0.31; in that of G29C U32G, 0.2. Under U28C C46U stands 0.51; under U28C C46A, 0.66. With U28C C46G, the self-cleavage was found to be 1.68. With U28C G29A, the self-cleavage was 0.37. On to U28C G29C, for which the self-cleavage turned out to be 1.2. U28C G29U: the self-cleavage stood at 0.77.

As to U28A U43G, the self-cleavage stood at 0.03. For the variant U28A U43A, the self-cleavage came to 0.11. In the case of U28A U43C it was 0.09. In the case of G27U U34C it was 0.19; in that of G27U U34G, 0.26. In the case of G27U U34A it was 0.23; in that of G29U G30C, 0.69; in that of G29U G30U, 1.72. As to G29U G30A, the self-cleavage came out at 1.92. Regarding U28A C31A, the self-cleavage stood at 0.83. Consider U28A C31U, for which the self-cleavage turned out to be 0.54. Under U28A C31G stands 0.13; under G27U G44A, 0.43; under G27U G44C, 0.82. For the variant G27U G44U, the self-cleavage was determined as 0.37.

With U28C U32G, the self-cleavage was determined as 0.3. Under U28C U32A stands 0.09. In the case of U28C U32C, the self-cleavage was 0.27. As for G29C U43A, the self-cleavage came out at 0.03. Under G29C U43G stands 0.01; under G29C U43C, 0.26. In the case of G29A U34G it was 0.38.

With G29A U34C, the self-cleavage amounted to 0.08. Under G29A U34A stands 0.19. Consider U28A C42U, for which the self-cleavage turned out to be 0.22. With U28A C42A, the self-cleavage turned out to be 0.12. In the case of U28A C42G it was 0.02; in that of U28G G36C, 0.05. On to U28G G36U, for which the self-cleavage was determined as 0.12. As for U28G G36A, the self-cleavage amounted to 0.12. In the case of G29A G44C it was 0.34. Consider G29A G44U, for which the self-cleavage was found to be 0.26. For the variant G29A G44A, the self-cleavage is 0.36. Under G29C C37G stands 0.02; under G29C C37A, 0.02; under G29C C37U, 0.02.
